These results are taken from patent US20140193401A1 (published 2014).

What all share (experiment): SPR (BIAcore 3000), mAb 1B7 immobilised on CM5 chip, toxin injected
(In general: In SPR one partner is held on a chip, and binding of the other changes the refractive index at the surface.)

One assay has as its target T1, PTx-S1-220 R79A (Bordetella pertussis, UniProt P04977 35-254).
T1 chain: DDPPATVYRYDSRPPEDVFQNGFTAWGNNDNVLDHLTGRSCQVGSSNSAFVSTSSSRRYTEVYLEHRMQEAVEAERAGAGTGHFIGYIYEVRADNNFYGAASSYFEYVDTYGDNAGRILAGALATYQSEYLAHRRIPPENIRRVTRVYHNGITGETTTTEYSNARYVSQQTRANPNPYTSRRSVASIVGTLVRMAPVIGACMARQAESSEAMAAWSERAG

The target in the next assay is T2, PTx-S1-220 N150A (Bordetella pertussis, UniProt P04977 35-254).
T2 chain: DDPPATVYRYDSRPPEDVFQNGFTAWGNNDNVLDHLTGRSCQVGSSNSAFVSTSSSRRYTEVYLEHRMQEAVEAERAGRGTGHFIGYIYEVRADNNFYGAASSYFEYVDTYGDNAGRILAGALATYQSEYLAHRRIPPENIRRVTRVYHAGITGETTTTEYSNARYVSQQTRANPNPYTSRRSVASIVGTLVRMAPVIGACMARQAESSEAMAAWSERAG

The target in another assay is T3, PTx-S1-220 T158A (Bordetella pertussis, UniProt P04977 35-254).
T3 chain: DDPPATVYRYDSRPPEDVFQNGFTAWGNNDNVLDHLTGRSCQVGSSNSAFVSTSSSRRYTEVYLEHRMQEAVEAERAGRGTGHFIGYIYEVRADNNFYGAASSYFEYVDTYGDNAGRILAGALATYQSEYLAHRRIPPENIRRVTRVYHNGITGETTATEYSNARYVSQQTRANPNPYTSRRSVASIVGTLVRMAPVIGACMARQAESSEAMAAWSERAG

A further assay concerns the target T4, PTx-S1-220 R146A (Bordetella pertussis, UniProt P04977 35-254).
T4 chain: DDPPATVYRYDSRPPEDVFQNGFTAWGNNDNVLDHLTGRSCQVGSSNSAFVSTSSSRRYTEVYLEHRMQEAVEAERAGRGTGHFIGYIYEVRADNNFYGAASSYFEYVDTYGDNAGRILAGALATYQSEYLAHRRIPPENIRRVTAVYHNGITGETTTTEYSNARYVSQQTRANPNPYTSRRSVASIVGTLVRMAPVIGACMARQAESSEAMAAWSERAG

The target in a further assay is T5, PTx-S1-220 E210A (Bordetella pertussis, UniProt P04977 35-254).
T5 chain: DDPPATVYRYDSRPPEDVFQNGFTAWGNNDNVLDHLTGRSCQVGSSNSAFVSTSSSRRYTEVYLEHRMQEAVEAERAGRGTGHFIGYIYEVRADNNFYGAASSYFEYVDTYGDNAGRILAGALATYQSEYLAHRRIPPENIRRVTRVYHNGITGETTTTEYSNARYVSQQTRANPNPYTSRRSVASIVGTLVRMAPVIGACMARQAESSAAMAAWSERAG

The target in a further assay is T6, PTx-S1-220 H83A (Bordetella pertussis, UniProt P04977 35-254).
T6 chain: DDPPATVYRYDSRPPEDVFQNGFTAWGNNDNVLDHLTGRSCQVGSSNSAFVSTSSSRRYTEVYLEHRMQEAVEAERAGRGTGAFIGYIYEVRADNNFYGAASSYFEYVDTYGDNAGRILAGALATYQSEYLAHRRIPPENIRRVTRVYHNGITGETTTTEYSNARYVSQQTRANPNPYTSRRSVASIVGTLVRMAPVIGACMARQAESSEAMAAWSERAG

The next assay deals with T7, PTx-S1-220 Y161A (Bordetella pertussis, UniProt P04977 35-254).
T7 chain: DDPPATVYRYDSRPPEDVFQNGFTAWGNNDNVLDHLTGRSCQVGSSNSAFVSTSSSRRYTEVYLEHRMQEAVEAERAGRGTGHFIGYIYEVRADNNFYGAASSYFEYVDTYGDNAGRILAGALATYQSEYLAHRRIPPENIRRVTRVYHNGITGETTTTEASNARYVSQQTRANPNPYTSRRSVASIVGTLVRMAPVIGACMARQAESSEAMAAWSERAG

The target of a further assay is T8, PTx-S1-220 Y166A (Bordetella pertussis, UniProt P04977 35-254).
T8 chain: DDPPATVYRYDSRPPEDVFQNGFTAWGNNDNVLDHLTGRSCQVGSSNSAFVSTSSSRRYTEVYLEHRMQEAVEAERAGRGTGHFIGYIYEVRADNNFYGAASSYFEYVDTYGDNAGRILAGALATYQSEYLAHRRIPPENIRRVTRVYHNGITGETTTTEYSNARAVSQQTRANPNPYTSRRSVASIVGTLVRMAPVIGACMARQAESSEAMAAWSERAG

For another assay, the target named is T9, PTx-S1-220 T159A (Bordetella pertussis, UniProt P04977 35-254).
T9 chain: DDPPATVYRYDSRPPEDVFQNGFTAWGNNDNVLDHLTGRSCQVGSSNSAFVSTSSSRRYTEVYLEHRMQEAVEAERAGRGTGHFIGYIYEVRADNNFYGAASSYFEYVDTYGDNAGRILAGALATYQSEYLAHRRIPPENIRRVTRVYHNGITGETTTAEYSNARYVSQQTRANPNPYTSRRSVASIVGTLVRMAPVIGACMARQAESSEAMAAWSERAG

B1: murine monoclonal antibody 1B7 (antibody, V domains shown)
VH: EVQLQQSGSELVRPGASVKLSCKASGYKFTSYWMHWVKQRPGQGLEWIGNIFPGSGSTNYDEKFNSKATLTVDTSSNTAYMQLSSLTSEDSAVYYCTRWLSGAYFDYWGQGTTLTVSS
VL: DIQMTQSPALMSASPGEKVTMTCSASSSVSFMYWYQQKPRSSPKPWIYLTSNLPSGVPARFSGSGSGTSYSLTISSMEAEDAATYYCQQWSSHPPTFGSGTKLEIKR
notes: also called mAb 1B7; 1B7 mAb
Regarding B1, the koff was found to be 0.025 s⁻¹ in the assay with PTx-S1-220 R79A; 0.008 s⁻¹ with PTx-S1-220 N150A; 0.0013 s⁻¹ with PTx-S1-220 T158A; 0.0015 s⁻¹ with PTx-S1-220 R146A; 0.0016 s⁻¹ with PTx-S1-220 E210A; 0.01 s⁻¹ with PTx-S1-220 H83A. The results for the koff with PTx-S1-220 Y161A, in the assay with PTx-S1-220 Y166A and with PTx-S1-220 T159A were 0.0013 s⁻¹, 0.0014 s⁻¹ and 0.0014 s⁻¹, respectively.

As usually defined, the koff is the first-order rate constant of dissociation. A lower koff goes with a long-lived complex.
